Data on one substance can be found in publication PMC4332860.

This assay concerns the target Human coagulation factor X (human). Description: SPR; human FX amine-coupled to a CMD500m chip; vector particles 1.25x10^8 to 1x10^9 physical particles per millilitre passed for 3 min at 25 μl/min; 10 mM HEPES pH 7.4, 150 mM NaCl, 5 mM CaCl2, 0.005% Tween 20; reference flow cell subtracted. (In general: Surface plasmon resonance follows binding to a sensor surface in real time, without labels.)

On to “AdGFPhCKS17, ΔE1/E3 Ad5 vector particles with CKS17 peptide in place of hexon HVR5 (from UniProt P04133 1-952; P11818 1-581) (complex)”, for which the percent reduction of binding against AdGFPhWt is 30%.
